The nanobody polyreactivity screen of Harvey et al. (2022)

Test: yeast display, Sf9 membrane polyspecificity reagent, FACS + sequencing; frameworks hold sequencing errors
In short: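 Genes from sorted yeast were amplified by colony PCR, read by MiSeq 2 × 250 sequencing and filtered on CDR length. These cells carried a synthetic nanobody library in Saccharomyces cerevisiae BJ5465 and were sorted by FACS into low and high (top ~1%) gates on anti-HA and streptavidin fluorescence. Polyreactivity is labelled according to the gate of origin.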

QVQLVESGGGLLQAGGSLRLSCAASGRTFLGYAMGWYIQAPGKERELVAAISWDGTSTYYADSLKGRFTISRDNAKNTVYLPMNSLKPEDTAVYYCAAQLTDYQSKTLSYDYWGQGTQVTVSS
polyreactivity (PSR sort gate): low polyreactivity

QVQLVESGGGVVQAGGSLRLSCAASGFTFVWHAMGWYRQAPGKEREFVAAISRRGGTTNYADSVKGRFTISRDNAKNTVYLQMNSLKPEDTAVYYCNIEPRYRSSGGMDYWGQGTQVTASS
polyreactivity (PSR sort gate): high polyreactivity

QVQLVESGGGLVQAGGSLRLSCAASGNIFDEYTMGWYRQAPWKERELVAAINSGGSTDYADSVKGRFTISRDNAKNTVYLQMNSLKPEDTAVYYCARDVWPTKIQQQPGYGRGEYWGQGTQVTVSS
polyreactivity (PSR sort gate): low polyreactivity

QVQLVESGGGLVQAGGSLRLSCAASGRIFPANAMGWYRQAPGKERELVAAISSSGGSTYYADSVKGRFTISRDNAKNTVYLQMNSLKPEDTAVYYCAKVHYRWPRVTWPNVWWSFEYWGQGTQVTVSS
polyreactivity (PSR sort gate): low polyreactivity

QVQLVESGGGLVQAGGSLRLSCAASGRIFDRNAMGWYRQAPGKERELVAAIRRGGSTNYADSVKGRFTISRDNAKNTVYLQMNSLKPEDTAVYYCNTVYSEYYIAYDYWGQGTQVTVSS
polyreactivity (PSR sort gate): high polyreactivity

QVQLVESGGGLVQAGGSLRLSCAASGIIFTDYAMGWYRQAPGIERELVAAISGSGGSTYYADSVKGRFTISRDNAKNTVYLQMNSLKPEDTAVYYCAAATHIFLQVYYAYGYWGQGTQVTVSS
polyreactivity (PSR sort gate): high polyreactivity

QVQLVESGGGLVQAGGSLRLSCAASGSTFNRNAMGWYRQAPGKERELVAAISWRGDSTSYADSVKGRFTISRDNAKNTVYLQMNSLKPEDTAVYYCATAHDYAFYRYWYVPSEYNYWGQGSQVTVSS
polyreactivity (PSR sort gate): low polyreactivity

QVQLVESGGGLVQAGGSLRLSCAASGFIFSYYAMGWYRQAPGKERELVAAISGRGGSTYYADSVKGRFTISRDNEKNTVYLQMNSLKPEDTAVYYCAATTLRFYRHGDYWGQGTQVTVSS
polyreactivity (PSR sort gate): low polyreactivity

QVQLVDSGGGLVQAGGSLRLSCAASGFTFYSYAMGWYRQAPGKERELVASITSGGSTYYADSVKGLFTISRDNGKNTVYLPMNSLNPEYTAVSYCAATRGYSQYGRVRKYGYWGLGTQVTVSS
polyreactivity (PSR sort gate): high polyreactivity

QVQLVESRGGLVQAARSLRLSFAASGSIFSSNAMGWYRQAPGKERELVAAITSVGSTTYADSVKGRFTISRDNAKNTVYLQMNSLKPEDTAVYYFAADPVYRYYHGWTYVDYVYWGQGTQVTVSS
polyreactivity (PSR sort gate): low polyreactivity

QVQLVESGGGLVQAGGSLRLSCAASGSTLIFYAMGWYRQAPGKERELVAAIRFSGGTTYYADSVKGRFTISRDNAKNTVYLQMNSLKPEDTAVYDCAADPRPAYGYYYLYADFDYWGLGTQVTVSS
polyreactivity (PSR sort gate): low polyreactivity

QVQLVESGGGLVQEGGSLRLSCAASGRTFEQNAMGWYRQAPGKERELVASITSVGSTDYADSVKGRFTISRDNAKNTVYLQMNSLKTEDTAVYYCAKTLGSQNYDFDYWGQGTQVTVSS
polyreactivity (PSR sort gate): low polyreactivity

QVQLVESGGGLVQAGGSLRLSCAASGFTYLRYAMGWYRQAPGKERELVAAISFSGDTTNYADSVKGRFTISRDNAKNTVYLQMNSLKPEDTAVYYCAASYGGGYYSDRGYYYWGQGTQVTVSS
polyreactivity (PSR sort gate): low polyreactivity

QVQLEESGGGLVQAGASLRLSCAASGFIFTSYAMGWYRQAPGKEREFVAASSRRGGSTYYADSVKGRFTISRDNAKNTVYLQMNILKPEYTAVYYCAADPKQHAGYEYWGQGTQVTVSS
polyreactivity (PSR sort gate): high polyreactivity

QVQLVESGVGLVQAGGSLRLSCAASGSTFVYMGWYRQAPGKEREFVAAITWSGGSTYYADSVKGRFTISRDNAKNTVYLQMNSLKPEDTAVYYCNAVSVFPGWARYYYWGQGTQVTVSS
polyreactivity (PSR sort gate): low polyreactivity

QVQLVESGGGLVQAGGSLRLSCAASGIMFFLYAMGWYRQAPGKERELVAAISSGGSTYYAVSVKGRFTISRDNAKNTVYLQMNSLKPEDTAVYYCNARYWPFRYYYWGQGTQVTVSS
polyreactivity (PSR sort gate): high polyreactivity

QVQLVESGGGLVQAGGSLRLSCAASGRIFSRNAMGWYRQAPGKERELVAAISGSGGSTYYADSVKGRFTISRDNAKNTVYLQMNSLKPEDTAVYYCNKFGYHREYDYWGQGTQVTVSS
polyreactivity (PSR sort gate): low polyreactivity

QVQLVESGGGLVQAGGSLRLSCAASGRIFGRYAMGWYRQAPGKERELVASIRSRGGSTYYADSVKGRFTISRDNAKNTVYLQMNSLKPEDTAVYYCAADGTRSYKGYYWGQGTQVTVSS
polyreactivity (PSR sort gate): high polyreactivity

QVQLVESGGGLVKAGGSLRLSCAASGITFRKYAMGWYRQAPGKERELVAAITAGGGRTFYADSVKGRFTISRDNAKNTVYLQMNSLKPEDTAVYYCNADLGIGYDYWGQGTQVTVSS
polyreactivity (PSR sort gate): high polyreactivity

QVQLVESGGGLVQAGGSLRLSCAASGSIFSKYAMGWYRQAPGKERELVAAIDWSGGSTYYADSVKGRFTISRDNAKNTVYLQMNSLKPEDTAVYYCNAEYVVADYGYYTIEFDYWGQGTQVTVSS
polyreactivity (PSR sort gate): low polyreactivity

QVQLVESGGGLVQAGGSLRLSCAASGGIIDWYVMGWYRQAPGKERELVAAISYNGGATYYADSVKGRFTISRDNAKNTVYLQMNSLKPEDTAVYYCAAGVTWPYRYVWYVYWGQGTQVTVSS
polyreactivity (PSR sort gate): low polyreactivity

QVQLVESGGCLVQAGGSLRLRCAASGRIFLRYDMGWYRQAPGKERELVAAISSGASTYYADSVKGRFTISRDNAKNTVYLQMNSLKPEDTAVFYCAVDRPYYYGYRMDYWGQGSQVTVSS
polyreactivity (PSR sort gate): low polyreactivity

QVQLVESGGGLVQAGGSLRLSCAASGITLSRNAMGWYRQAPGKERELVAAITWRTDRTYYADSVKGRFTISRDNAKNTVYLQMNSLKPEDTAVYYCAARTTVSSARYDYWGQGTQVTVSS
polyreactivity (PSR sort gate): high polyreactivity

QDQLVESGRGLVQEGGSLRLSCAASGSIFWSNGMGWYRQAPGKERELVATISSSGSDTYYAASVKGRFTISRDTAKNTVYFQMNSLKPEDTAVYYCNVYSIWGTYDYRGQGTQVTVSS
polyreactivity (PSR sort gate): low polyreactivity

LVQLVESGGGLVQAGGSLRLSCAASGSIFPPYAMGWYRQAPGKERELVAARSNGGSTNYAYAVKGRFTISRDNPNYTVYLQMNSLIPEDTAVYYCVARQYYLGWFPYWRIFDYWGQGTQVTVSS
polyreactivity (PSR sort gate): high polyreactivity

QVQLVESGGGLVQAGGSLRLSCAASGRTFYGYAMGWYRQAPGKERELVAAITSSGGSTYYADSVKGRFTISRDNAKNTVYLQMNSLKPEDTAVYYCAKTSRYLTGGGDYWGQGTQVTVSS
polyreactivity (PSR sort gate): high polyreactivity

QVQLVESGGGLVQAGGSLRLSCAASGSTFSYYAMGWYRQAPGKERELVAAITTSGGRTYYADSVKGRFTISRDNAKFTVYLQMNSLKPEDTAVYYCNARSGRLGDYWGQGTQVTVSS
polyreactivity (PSR sort gate): high polyreactivity

QVQLQESGAGLVQAGGSLRLSCAASGSISAVGAMCWYRQAPGKEREFAASVNWATNTNYADSVKGRFTISRDNAKNTLYLQMNSLKPEDTAVYYCAVLPDWETRHDYWGHGTQVTVSS
polyreactivity (PSR sort gate): low polyreactivity

QVQLVESGGGLVQAGGSLRLSCAASGRTFSRNAMGWYRQAPGKERELVAAITSSGGSTYYADSVKGRFTISRDNAKNTVYLQMNSLKPEDTAVYYCNADATYRRGGGDYWGQGTQVTVSS
polyreactivity (PSR sort gate): high polyreactivity

QVQLVESGGGLVQAGGSLRLSCAASGFIFANNAMGWYRQAPGKERELVAAITSRGASTYYADSVKGRFTISRDNAKNTVYLQMNSLKPEDTAVYYCAKATYHYRRYYWGQGTQVTVSS
polyreactivity (PSR sort gate): high polyreactivity

QVQLVESGGGLVQAGGSLRLSCAASGFIFSSYAMGWYRQAPGKERELVAAITSGGSTNYADSVKGRFTISRDNAKNTVYLQMNSLKPEDTAVYYCATVPGRSWFFHWWSTGGDDEYWGQGTQVTVSS
polyreactivity (PSR sort gate): low polyreactivity

QVQLVESGGGLVQAGGSLRLSCAASGRTFTRYAMGWYRQAPGKERELVAAISRGGGGTYYADSVKGRFTISRDNAKNTVYLQMNSLKPEDTAVYYCAADGDRSAQRYTGYYYWGQGTQVTVSS
polyreactivity (PSR sort gate): high polyreactivity

QVQHVESGGGLVQAGGSLRLSCAASGRTFTHYAMGWYRQAPGKERELVAVITTGGSTYYADSVKGRFTISRDNAKNTVYLQMNSLKPEDTAVYYCAATALSGLGYWGQGTQVTVSS
polyreactivity (PSR sort gate): low polyreactivity

QVQLVESGGGLVQAGGSLRLSCAASGSTFRIYAKGWYRQAPGKERELVAAITRGARTNYADSVKGRFTISRDNAKNTVYLQMNSLKPEDTAVYYCAADGWRWYQHNGFDYWVQGTQVTVSS
polyreactivity (PSR sort gate): high polyreactivity

QVQLVESGGGLVQAGGSLRLSCAASGSTINQYPLGWYRQATGKERELVAAITRRGGSTYYADSVKGRFTISRDNAKNTVYLQMNSLKPEDTAVYYCAAAYPYTTVSYDYWGQGTQVTVSS
polyreactivity (PSR sort gate): high polyreactivity

QVQLVESGGGLVQAGGSLRLTCAASGIIFFKNAMGWYRQAPGKERELVASINRSGGSTYYADSVKGRFTISRDNAKNTGYFQMNSLKPEDTAVFYCNARLTLRSYDYWGLGTQVTVSS
polyreactivity (PSR sort gate): low polyreactivity

QVQLVESGGGLVQAGGSLRLSCAASGITFRYYTMGWYRQAPGKERELVAVISWSGGSTYYADSVKGRFTISRDNGKNTVYLQMNSLKPEDTAVYYCAAVRRISRYDYWGQGTQVTVSS
polyreactivity (PSR sort gate): high polyreactivity

QVQLVESGGGLVQAGGSLRLSCAASGFTFDDYTMGWYRPAPGKEREFVAAISSSGGSTYYADSVKGRFTISRDNAKNTVYLQMNSLKPVDTAVYYCAADARYYDYYEYDYWGQGTQVTVSS
polyreactivity (PSR sort gate): high polyreactivity

QDQLVESGGGLVQAGGSLRRSCAASGFTFFIYAMGWYRQAPGKEREFVAAITGSGGSTYYADSVKGRFTISRDNAKNTVYLQMNRLKPEDTAVYYCNKLSYGRSGYWGQGTQVTVSS
polyreactivity (PSR sort gate): high polyreactivity

QVQLVETGGGLVQAGGSLRLSCAASGRTFYGNAMGWYRQAPGKEREFVAAIRGSGGSTYYADSVKGRFTISRDNAKNTVYLQMNSLKPEDTAVSYCNRGWAYGSAYYAKYYYWGQGTQVTVSS
polyreactivity (PSR sort gate): high polyreactivity

QDQLVESGGGLFQAGGSLRLSCGASGFIFRWNAMGWSRQAPGKEREMVAAITRGGSTYYADSVKGRFSISRDNAKNTVYLQMNSLKPEDTAVYFCAAGYVYRGASGGYWGQGTQVTVSS
polyreactivity (PSR sort gate): high polyreactivity

QVQLVDSGGGLVQAGGSLRLSCAASGFIFPINAMGWYRQAPGKERELVAAITGGGSTSYADSVKGRFTISRDNAKNTVYLQMNSLKPEDTAVYYCATDRLTYTKYGYWGQGTLVTVSS
polyreactivity (PSR sort gate): low polyreactivity

QVQSVESGGGLVQAGGSLRLSCAASGRTFSIYGMGWYRQAPGKERELVAAISWRSGSTYYADSVKGRFTISRDNAKNTVYLKMNSLKPEDTAVYYCAKRYILGYKPYSYWGQGTQVTVSS
polyreactivity (PSR sort gate): high polyreactivity
